Measured values published in US20140286950A1 (Genentech, published 2014).
Positions count from the first letter of the chain named.

T1: N-terminal HIS-tagged human CD83 stably expressed on CHO cells (CHO-hCD83) (human, UniProt Q01151 20-205)
T1 construct: also called CHO cells expressing human CD83; not shown: N-terminal HIS tag
T1 sequence: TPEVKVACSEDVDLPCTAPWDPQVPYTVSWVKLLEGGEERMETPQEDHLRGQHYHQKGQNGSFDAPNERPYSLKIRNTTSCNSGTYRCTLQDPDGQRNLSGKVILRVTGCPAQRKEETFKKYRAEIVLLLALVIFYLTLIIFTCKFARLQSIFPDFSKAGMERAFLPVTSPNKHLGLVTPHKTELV

T2: N-terminal HIS-tagged mouse CD83 stably expressed on CHO cells (CHO-mCD83) (mouse, UniProt O88324 22-196)
T2 construct: whole, on cells; also called CHO cells expressing mouse CD83; not shown: N-terminal HIS tag
T2 sequence (looked up): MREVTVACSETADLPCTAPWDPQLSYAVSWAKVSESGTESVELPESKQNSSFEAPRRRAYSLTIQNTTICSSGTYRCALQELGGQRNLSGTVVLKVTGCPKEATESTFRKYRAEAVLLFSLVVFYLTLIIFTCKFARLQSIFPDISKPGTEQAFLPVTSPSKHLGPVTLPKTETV

B1: anti-CD83 antibody 60B10 (antibody, V domains shown)
VH: QVQLKESGPGLVKPSQSLSLTCSVTGFSITTGGYWWTWIRQFPGQKLEWMGYIFSSGNTNYNPSIKSRISITRDTSKNQFFLQLNSVTTEGDTARYYCARAYGKLGFDYWGQGTLVTVSS
VL: QPVLTQSPSASASLGNSVKITCTLSSQHSTYTIGWYQQHPDKAPKYVMYVNSDGSHSKGDGIPDRFSGSSSGAHRYLSISNIQPEDEADYFCGSSDSSGYVFGSGTQLTVL
notes: also called 60B10 Anti-human CD83
B2: anti-CD83 antibody 42C6 (antibody, V domains shown)
VH: QVQLKESGPGLVKPSQSMSLTCSVNGFSITSRYWWTWIRQFPGKNLEWMGYISYSGGTSYNPSLKSRISITRDTSKNQFFLHLNSVTTADTATYYCARDLYGTYFDYWGQGTMVTVSS
VL: QYELIQPKSVSESLGRTVTISCKRSSGNIGNNYVHWYQQHFGSSPKTVIYDDNKRPSGVPHRFSGSIDSSSNSASLTITDLQIEDEAEYYCQSAWVFGSGTKVTVL
notes: also called 42C6 Anti-mouse CD83
B3: anti-CD83 antibody 39A2 (antibody, V domains shown)
VH: B2 VH with M113L
VL: B2 VL
notes: also called 39A2 Anti-mouse CD83

biological target: T1, N-terminal HIS-tagged human CD83 stably …; test: flow cytometry on CHO-hCD83 cells, anti-hamster IgG secondary
Experimental: (§1) The generated antibodies were assayed for their ability to bind human CD83 or mouse CD83 stably expressed on CHO cells. To generate an expression vector for the production of the stable cell lines, a DNA fragment encoding an N-terminal HIS-tagged human CD83 (hCD83) or an N-terminal HIS-tagged mouse CD83 (mCD83) was cloned into the neomycin-resistance plasmid, pRKneo (Crowley et al., Proc Natl Acad Sci USA., 90(11):5021-5025, 1993), at the XbaI and XhoI sites to produce hCD83.pRKneo or mCD83.pRKneo, respectively. CHO cells were transfected with hCD83.pRKneo or mCD83.pRKneo using Fugene (Roche) and the top 10% of CD83 positive cells were sorted by FACS then selected with G418 ([…]; GIBCO) to generate the stable CHO-hCD83 or CHO-mCD83 cell line, respectively. CHO-hCD83 and CHO-mCD83 cells were resuspended in a FACS buffer containing PBS/2% BSA/2 mM EDTA and incubated with anti-human CD83 antibodies or anti-mouse CD83 antibodies for 30 minutes on ice. Cells were washed with FACS buffer and then incubated with a fluorochrome conjugated anti-hamster IgG secondary antibody for 30 minutes on ice in the dark. Cells were washed with FACS buffer and analyzed by flow cytometry on a LSR II flow cytometer using FACSDiva software (Becton Dickinson). Data analysis and construction of diagrams was done using FlowJo v.9.4.11.

Row | binding result | Binder
1 | binds | B1
2 | no binding | B2
3 | no binding | B3

biological target: T2, N-terminal HIS-tagged mouse CD83 stably …; test: flow cytometry on CHO-mCD83 cells, anti-hamster IgG secondary
Experimental: as §1

Row | binding result | Binder
4 | binds | B1
5 | binds | B2
6 | binds | B3
